According to patent publication US20160251675:

System: Plant OsNAM12.1 (SUMOylated, from rice root protein extract; genotype of the sample not stated)

deSUMOylating protease Ulp1
deSUMOylation by protease treatment, immunoblot: putative di-SUMOylated (-53 kD; 29+12+12) rather than the putative mono-SUMOylated (-41 kD; 29+12) OsNAM12.1 was preferentially deSUMOylated
